In assay [1] the target is T1, mutant human RAGE (82S) (human, UniProt Q15109 23-404). Kind of assay: cell-based or functional assay.
Assay [2] addresses T2, wild-type human RAGE (Receptor for Advanced Glycation Endproducts) (human, UniProt Q15109 23-404). Kind of assay: cell-based or functional assay.
Assay [3] concerns the target T2, wild-type human RAGE (Receptor for …). Briefly: radioligand binding to stably transfected CHO cells expressing wild-type human RAGE, Klotz-Hunston fit. As to the method:
(§1) FIG. 11A. Immunoblotting. Lysates of stably-transfected CHO cells were prepared and subjected to immunoblotting using anti-human RAGE IgG (2 μg/ml). FIGS. 11B-C. Radioligand binding assays. Purified EN-RAGE was radiolabelled using ¹²⁵-I and radioligand binding assays were performed in 96-well tissue culture dishes containing the indicated transfected CHO cells. Assays were performed in the presence of the indicated concentration of radiolabelled EN-RAGE±an 50-fold molar excess of unlabeled EN-RAGE. Elution of bound material was performed in a solution containing heparin. Equilibrium binding data were analyzed according to the equation of Klotz and Hunston. Where indicated, pretreatment with either antibodies (70 μg/ml), human soluble RAGE or bovine serum albumin (50-fold molar excess) was performed. The mean±standard deviation (SD) is shown. In FIG. 11C, * indicates p<0.01 versus respective controls. FIG. 11D. Activation of p44/p42 MAP kinases. The indicated stably-transfected CHO cells were incubated with EN-RAGE, 10 μg/ml, for one hr. Cell lysates were subjected to SDS-PAGE and transfer of the gels' contents to nitrocellulose. Immunblotting was performed using anti-phosphorylated p44/p42 MAP kinase (1 μg/ml). […] In FIGS. 11D-11E, bands were scanned into a densitometer, and band density was quantified using ImageQuant. […]

Assay [4] deals with immobilized RAGE (Homo sapiens (Human), UniProt Q15109 23-342). Briefly: binding to RAGE immobilized in culture wells.
Sequence of immobilized RAGE (Q15109 23-342 limits assumed, form in doubt): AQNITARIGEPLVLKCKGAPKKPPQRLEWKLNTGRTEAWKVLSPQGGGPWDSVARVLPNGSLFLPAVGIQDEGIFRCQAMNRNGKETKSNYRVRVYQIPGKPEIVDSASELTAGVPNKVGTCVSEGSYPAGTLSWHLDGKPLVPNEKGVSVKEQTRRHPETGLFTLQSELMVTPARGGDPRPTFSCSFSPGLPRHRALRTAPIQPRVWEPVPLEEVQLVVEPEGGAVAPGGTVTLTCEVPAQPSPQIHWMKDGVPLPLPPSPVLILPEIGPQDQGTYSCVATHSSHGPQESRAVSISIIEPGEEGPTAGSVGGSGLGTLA
For assay [5], the target named is T3, macrophage (MP) RAGE.
T3 construct: whole, on cells; also called RAGE on macrophages
Briefly: binding to macrophages in culture wells.

In assay [6] the target is T1, mutant human RAGE (82S). Kind of assay: radioligand binding to stably transfected CHO cells expressing human RAGE (82S), Klotz-Hunston fit. As to the method:
as §1

Assay [7] concerns the target T2, wild-type human RAGE (Receptor for …). Briefly: binding to endothelial cells in culture wells.

T1 sequence (Q15109 other isoform, or with tags, fused parts or gaps mutant): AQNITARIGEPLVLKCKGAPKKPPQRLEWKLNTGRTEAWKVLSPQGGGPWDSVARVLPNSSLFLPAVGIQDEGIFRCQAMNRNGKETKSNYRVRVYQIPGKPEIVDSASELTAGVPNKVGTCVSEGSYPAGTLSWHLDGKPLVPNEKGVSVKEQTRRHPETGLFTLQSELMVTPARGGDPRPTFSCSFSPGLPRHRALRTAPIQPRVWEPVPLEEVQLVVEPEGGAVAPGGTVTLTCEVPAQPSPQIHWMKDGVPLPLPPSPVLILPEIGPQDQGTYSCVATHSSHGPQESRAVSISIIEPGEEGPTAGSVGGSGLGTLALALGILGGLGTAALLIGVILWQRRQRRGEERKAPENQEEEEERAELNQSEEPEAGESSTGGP
T2 sequence (Q15109 23-404): as the sequence (Q15109 other isoform, or with tags, fused parts or gaps mutant) above, with S60G counted along it

B1: EN-RAGE (Extracellular Novel RAGE binding protein) (ligand, bovine, UniProt P79105 2-92, looked up)
chain: TKLEDHLEGIINIFHQYSVRVGHFDTLNKRELKQLITKELPKTLQNTKDQPTIDKIFQDLDADKDGAVSFEEFVVLVSRVLKTAHIDIHKE
modifications: radiolabelled with 125-I (Iodobeads) in the radioligand binding assays
notes: mature; also called S100A12
On to B1, for which, in assay [1], the “IL-6, mutant RAGE against wild-type MPs” value was roughly 7.3 fold; the “MMP-9 activity (zymography) of human MPs” value is roughly 4.7 fold; the “MMP-9 activity, mutant RAGE allele against wild-type receptor MPs” value is roughly 2 fold; the “NF-kB gel shift band (EMSA) in CHO transfectants” value is roughly 11.3 fold. In addition, in assay [1], the “NF-κB activation, mutant against wild-type receptor” value was roughly 2.1 fold; the “TNF-alpha, RAGE (G82S)/(S82S) against wild-type RAGE MPs” value is roughly 4.5 fold; the “elaborated TNF-alpha by human MPs” value was roughly 17.8 fold; the “generation of IL-6 by human MPs” value was roughly 10.9 fold. Besides, in assay [1], the “phosphorylated p44/42 MAP kinases in CHO transfectants” value was roughly 3.9 fold; the “phosphorylated p44 and p42 MAP kinases in human MPs” value was roughly 4.8 fold. In addition, in assay [2], the “MMP-9 activity (zymography) of human MPs” value is roughly 2.3 fold, the “NF-kB nuclear binding activity (EMSA) in CHO transfectants” value is roughly 5.4 fold, the “activation of p44/p42 MAP kinases in human MPs” value is roughly 2.2 fold and the “adhesion of Molt-4 cells to cultured ECs” value amounted to 7 fold. Moreover, in assay [2], the “expression of cell-surface VCAM-1 on cultured ECs” value is 4.3 fold, the “generation of IL-6 by human MPs” value was roughly 1.5 fold, the “generation of TNF-alpha by human MPs” value was roughly 4 fold and the “phosphorylated p44/42 MAP kinases in CHO transfectants” value is roughly 2 fold. For the same molecule, the Kd – broadly, the equilibrium constant for the complex coming apart – in assay [3] was roughly 122 nM. In assay [4], this molecule gave a Kd of roughly 75 nM. Besides, the Kd in assay [5] was roughly 75 nM. Besides, the Kd in assay [6] was roughly 77 nM. The Kd in assay [7] is roughly 75 nM.

For the origin of these results see patent US20020122799A1 (published 2002).
